# Experiment: soluble on expression in E. coli; label from the status in PepcDB or PDB records
row,Sequence,soluble on expression in E. coli
1,DDIEADHVGSYGIVVYQSPGDIGQYTFEFDGDELFYVDLDKKETIWMLPEFAQLRSFDPQGGLQNIATGKHNLGVLTKRSNSTPATNEAPQATVFPKSPVLLGQPNTLICFVDNIFPPVINITWLRNSKSVADGVYETSFFVNRDYSFHKLSYLTFIPSDDDIYDCKVEHWGLEEPVLKHWEP,soluble
2,DDSCQIGTSFTGLDMTKYVGTWYELFRTPNSDEEDFTNCEYDKYTLDENGVIQVTSVAYTNSIRGFITSTGTVPSWTEDTFDIAYGDDETWSSTYFMVGTDYQTYSIVAGCLDNDYSRHLYWIASHETSFDDATKAKVNEVLAPYNLSLDDMEPVDQSYCVQY,soluble
3,DEPKVLIAEVVVEGATPELEQLVYQVISTRPGSTTTRTQLQQDTNAIFATGFFADVNAVPRDTPLGVRITFVVRPYPVLRAVQVAGNQVLTQEKVNEIFAPQIGRTLNLRELQAGIEKINTFYRDNGYILGQVVGTPQVDPDGVVTLQVAEGVVEQVTYRFLNKEGEPTKQRTRDFVISREMDTQPGVVLNQKTVQADLRRLFELGLFEDVQVALEPGQNPRRVNLILNIKERNT,soluble
4,DHFFELMGTTTEQAYELVDLHPAYRLFPEGSPALDVDSGVGNVATLFDALHPGAGKKVQRYLRNATDVYHLSLRHFLYTTFSNPRDFLRADILRRLPYLARLLSSSLDTWVRNRFPHPILRQILSYPAVFLSTQPTQAPALYSLMSHTDLVEGVHYPRGGFAAIMSAIEKIDREAGVEFYYEHEVTDITIESGRACGITAAGPHGTSTFNADVVVSAADLHHTETRLLPPHLRSYPENYWSKRNPGLGTVLIMLGVRGHLPELAHHNLLFSKDWDPDFAAVYSGPHPSRPLGASQSIYISKTSATDSDAAPEGHENLFILVPVPANDALGHGNTYHHTASPRVEEITRATIAQIATWTGISDLDERIVVTKTIGPADFSERYHAWSSGAIGPAHTLMQSAFFRGKNMASKVKGLYYAGGTTVPGVGVPMCLISAENVITRIKAE,not soluble
5,DIGCYTLGLLPPFDAQDSSTDMGSSIGIANGVYRATGNIPIAVIGDSTFFHSGISALANAVYNQTPMLVLVLDNRSTAMTGQQPSPSKEIDIGEVAKGLGVKYVRYVDPFDVNSSIRELSNALKWVKDNKQPAVVIAKRACALLVMDNVEESNLPKA,not soluble
6,DIQMSQSSSSFSVSLGDRVTITCKASEDIYSRLAWYQQKPGNAPRLLISGATSLETWVPSRFSGSDSGKDYTLSITSLQTEDVATYFCQQYWSPPPTFGGGTKLEIKRADAAPTVSIFPPSSEQLTSGGASVVCFLNNFYPKDINVKWKIDGSERQNGVLNSWTDQDSKDSTYSMSSTLTLTKDEYERHNSYTCEATHKTSTSPIVKSFNRNEC,soluble
7,DIVLTQSPSSLAVSLGQRATISCRASQSVSTSSFRYMHWYQQKPGQPPRLLIKYASNLESGVPARFSGSGSGTDFTLNIHPVEEEDTATYYCQHSWEIPYTFGGGTKLEIKRADAAPTVSIFPPSSEQLTSGGASVVCFLNNFYPKDINVKWKIDGSERQNGVLNSWTDQDSKDSTYSMSSTLTLTKDEYERHNSYTCEATHKTSTSPIVKSFNRNEC,soluble
8,DLFVVEKPPSLPVHTCGQYAIHTVLGQLRVNEGRTGLRVLHRLDRATSGVLLFAKNYETDLEFKTTLKQGEWSKEYICKVDGVFPDEEQVCEQPIGPLVISMGIQCVRPDGKDAKSRFRKLWSDGTQSVVQVHIETGRTHQIRVHSQF,not soluble
9,DPQSVETALNVAREGLVLLKNENNILPINPQKYKHIIVTGKNAHGYVHGGGSGAVVPFHYTNLFDGIQKEGKLNNVKVEYIDELDFMPSIMYTDDNLNEKGFHAEYFKNIHFEGAPVVKQTEKKINYSWAAGTELEGMPKDYFSVKWYSTMCVDETADYEFTLGGDDGYKLFINDQPIIDDWTPGGFRTTNVTKTLKAGEKYHVRVEYYQQGGGAGICFLWKRKNETQNKFADYLNKADLVIACFGHSSDTEGEASDRTFELPEVDKKMLASLSGCKKPVIGIVNAGGNIEMQKWEPSLKGLIWGFYGGQEAGTAIGEALFGKVNPSGKLPMTFEKKWEDSPAYNSYHDPDKDKHVAYTEGIFIGYRGYDKLKREVQYPFGYGLSYTTF,not soluble
10,DTVIAMDAYTPHDVTTQAQQLIDATPTAPALAPMTWPTPRVAARVRTQRDQRGRAPKPPRARGIDTIQHGRDDIDLRAISQLACTSQTQAIARIIATLEKRVDDHTPMITLVNDVLAEIETHGWAALSGQRAGSHAERHPGRVAMPRPQEVMAALNRYRGLSLVGSLDA,not soluble
11,DVKLVQSGPGLVAPSQSLSITCTVSGFSLTTYGVSWVRQPPGKGLEWLGVIWGDGNTTYHSALISRLSISKDNSRSQVFLKLNSLHTDDTATYYCAGNYYGMDYWGQGTSVTVSSAETTAPSVYKLEPVSSVTLGCLVKGYFPEPVTLTWNSGSLSSGVHTFPAVLQSDLYTLSSSVTVTSSTWPSQSITCNVAHPASSTKVDKKIEPRG,soluble
12,EDYEKVPLPNSVFVNTTESCEVERLFKATSPRGEPQDGLYCIRNSSTKSGKVLVVWDETSNKVRNYRIFEKDSKFYLEGEVLFVSVGSMVEHYHTHVLPSHQSLLLRHPYGYT,soluble
13,EEAKEGVPKVAYISLSPPFVGNYALDGSPRLRVYKADVALRVTGDEAAKTVKHHEPLIRNQLVALFTQQTVDSMSNVEAKEHLRQEALKQVQQVLEAEEGKPIVEDLLFNNLIVQ,not soluble
14,EFRKLGEVCEILDNRRIPIAKNKRNPGIYPYYGANGIQDYIDSYIFDGDFVLVGEDGSVINKDNTPVVNWASGKIWVNNHAHVLQTKNELKLKFLYFYLQTIDVSYCVAGTPPKINQENLKKIAIPIPPLEIQQEIVKILDQFSI,not soluble
15,EGELRLGERVLVVGQRLGTIRFFGTTNFAPGYWYGIELEKPHGKNDGSVGGVQYFSCSPRYGIFAPPSRVQRVTDSLDTLSEI,soluble
16,EIVHLGLEDNDFDNDINPLETTGAYLSPKEFKEALLDKDTVVLDTRNDYEYDLGHFRGAIRPDIRNFRELPQWVRDNKEKFMDKRVVVYCTGGVRCEKFSGWMVREGYKDVGQLHGGIATYGKDPEVQGELWDGKMYVFDERIAVDVNHVNPTIVGKDWFDGTPCER,not soluble
17,EKEKKNVFMRTFEAISRNFSEIFAKLSPGGSARLILENPEDPFSGGLEIEAKPAGKDVKRIEAMSGGEKALTALAFVFAIQKFKPAPFYLFDEIDAHLDDANVKRVADLIKESSKESQFIVITLRDVMMANADKIIGVSMRDGVSKVVSLSLEKAMKILEEIRKKQGWEHGN,soluble
18,ELNNLRMTYERLRELSLNLGNRMVPPVGNFMPDSILKKMAAILPMNDSAFATLGTVEDKYRRRFKYFKATIADLSKKRSSE,soluble
19,ELSGDDQGDEEEDDHAYEGVPNGGWHTSSLSLSLPSTIAAPHPMDGPPGGSTPVTPVIKAGWLDKNPPQGSYIYQKRWVRLDTDHLRYFDSNKDAYSKRFISVACISHVAAIGDQKFEVITNNRTFAFRAESDVERKEWMQALQQAMAEQRARARLSSAYLLGVPGSEQPDRAGSLELRGFKNKLYVAVVGDKVQLYKNLEEYHLGIGITFIDMSVGNVKEVDRRSFDLTTPYRIFSFSADSELEKEQWLEAMQGAIAEALSTSEVAERIWAAAPNRFCADCGAPQPDWASINLCVVICKRCAGEHRGLGAGVSKVRSLKMDRKVWTETLIELFLQLGNGAGNRFWAANVPPSEALQPSSSPSTRRCHLEAKYREGKYRRYHPLFGNQEELDKALCAAVTTTDLAETQALLGCGAGINCFSGDPEAPTPLALAEQAGQTLQMEFLRNNRTTEVPRLDSMKPLEKHYSVVLPTVSHSGFLYKTASAGKLLQDRRAREEFSRRWCVLGDGVLSYFENERAVTPNGEIRASEIVCLAVPPPDTHGFEHTFEVYTEGERLYLFGLESAEQAHEWVKCIAKAFVPPLAEDLLARDFERLGRLPYKAGLSLQRAQEGWFSLSGSELRAVFPEGPCEEPLQLRKLQELSIQGDSENQVLVLVERRRTLYIQGERRLDFMGWLGAIQKAAASMGDTLSEQQLGDSDIPVIVYRCVDYITQCGLTSEGIYRKCGQTSKTQRLLESLRQDARSVHLKEGEQHVDDVSSALKRFLRDLPDGLFTRAQRLTWLEASEIEDEEEKVSRYRELLVRLPPVNRATVKALISHLYCVQCFSDTNQMNVHNLAIVFGPTLFQTDGQDYKAGRVVEDLINHYVVVFSVDEEELRKQREEITAIVKMRVAGTASGTQHAGDFICTVYLEEKKAETEQHIKVPASMTAEELTLEILDRRNVGIREKDYWTCFEVNEREEAERPLHFAEKVLPILHGLGTDSHLVVKKHQAMEAMLLYLASRVGDTKHGMMKFREDRSLLGLGLPSGGFHDRYFILNSSCLRLYKEVRSQRPWSGAPETSHRPEKEWPIKSLKVYLGVKKKLRPPTCWGFTVVHETEKHEKQQWYLCCDTQMELREWFATFLFVQHDGLVWPSEPSRVSRAVPEVRLGSVSLIPLRGSENEMRRSVAAFTADPLSLLRNV,soluble
20,EMFYFEPVNIKKYLGSIGSELSDEVITIEQFFNLNSEYITIIDARSPREFSEKTISNAVNIPLFLTEEYETIGKLYKHEGKEVAIAKAGIIIQDGIKRIVSESLKLDPNKNLVVFCARGGMRSQSIATILKLLGFKVKRLVGGFKSYNISKT,not soluble
21,EMLYRSVDNRDIPQAMPKTIQALAHWDYQGLPDSEVVEAFSVELLALYETKALPKIANRMNIEVSGMRSLMMKTGRKLSRLEVLPTSIKELSRLDKRWADAKHWVAFKNLSGAITVNHYLAALDMQVNEMGEIEAQPEKRQIYVDLFFKT,not soluble
22,ENHEKEWRFNSRITLVRSPIMLGQQTSHGWRDLIFDVSGGGATPAKHVMQYTGVSYPLNPSMAPTATPEQISGVRLFSDGISPVREGVRL,not soluble
23,ENSVFFGKKKKVSLHLLVDPDMKDEIIKYAQEKDFDNVSQAGREILKKGLEQIA,soluble
24,ERTRAEQKLAETNVFLNSVVDGVAEPMVVVGLDRRVIMTNRAARDFFQISDVGSDEACHRLIHHRDTPCVREEGMQCPLLDVRTAKRPVIATQEHRDRSGDKRVVEVMTSPLLGSDGVAIGIIEAFRDIT,not soluble
25,ESIQRPTPINQVFPDPGLANAVKQNLGKQSVTDLVSQKELSGVQNFNGDNSNIQSLAGMQFFTNLKELHLSHNQISDLSPLKDLTKLEELSVNRNRLKNLNGIPSACLSRLFLDNNELRDTDSLIHLKNLEILSIRNNKLKSIVMLGFLSKLEVLDLHGNEITNTGGLTRLKKVNWIDLTGQKCVNEPVKYQPELYITNTVKDPDGRWISPYYISNGGSYVDGCVLWELPVYTDEVSYKFSEYINVGETEAIFDGTVTQPIKN,soluble
26,ESLCPQHHEALSLFCYEDQEAVCLICAISHTHRAHTVVPL,soluble
27,ETIELYKSSVPSGKEAGKNALAITNQQLISALENAAKDNKTSQPQARSLTASDQVQITQSSDKVIGYITTSNLDIDNNNTFDVGKLNGDKSTSKIIVNATLKTLNKINTLQSEEGIILPHPQKYKSTDPQAVATVQGPSIIGVHANAKENAETQKFINW,not soluble

# Source: the DeepSol protein solubility set
